According to patent US20250057950A1 (ORICELL THERAPEUTICS, published 2025):

T1: N-terminal peptide of human GPRC5D (1-27), biotin-labelled (human, labeled with biotin (EZ-Link Sulfo-NHS-LC-Biotin))
T1 construct: Immobilised on an SA sensor at 20 nM; also called N-terminal peptide (Biotin) of GPRC5D
T1 peptide: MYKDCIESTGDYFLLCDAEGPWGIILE


Key:
[1] = target: human G protein-coupled receptor class C group 5 member D (GPRC5D) protein (human) (UniProt Q9NZD1); experiment: flow cytometry (FACS) on CHO-GPRC5D cells
[2] = target: human G protein-coupled receptor class C group 5 member D (GPRC5D) protein (human) (UniProt Q9NZD1); experiment: flow cytometry (FACS) on K562-GPRC5D cells
[3] = target: human G protein-coupled receptor class C group 5 member D (GPRC5D) protein (human) (UniProt Q9NZD1); experiment: flow cytometry (FACS) on MM1S myeloma cells
[4] = target: T2, human G protein-coupled receptor class C group 5 member D (GPRC5D) protein (human, UniProt Q9NZD1 1-345); experiment: flow cytometry (FACS) on CHO-GPRC5D cells
T2 construct: whole, on cells; The same protein on several cell lines; also called HuGPRC5D; CHO-GPRC5D

[5] = target: T2, human G protein-coupled receptor class …; experiment: flow cytometry (FACS) on K562-GPRC5D cells
[6] = target: T2, human G protein-coupled receptor class …; experiment: flow cytometry (FACS) on MM1S myeloma cells
Procedure: The target cells (i.e., MM1S myeloma cells) were formulated with buffer to a concentration of 1×10⁶ cells/mL, and added into a 96-well sharp-bottom plate (corning 3894) with 30 μL in each well. The antibody to be detected was formulated with buffer to a concentration of 10 μg/mL, and subject to 3-fold dilution to form a gradient of 8 concentrations. The formulated antibodies of different concentrations were mixed well with the plated target cells at 30 μL/well, and incubated in a refrigerator at 4° C. for 1 hr. 150 μL of buffer was added into each well, and centrifuged at 300 g for 5 min. The supernatant was discarded, and then the cells were loosened up by shaking, and additionally washed once. The fluorescent secondary antibody (ab98593) was formulated with buffer at a ratio of 1:200, added into each well in an amount of 30 μl and mixed with the cells uniformly, and incubated in the refrigerator at 4° C. for 30 min. 150 μL of buffer was added to each well, and centrifuged at 300 g for 5 min. The supernatant was discarded, and then the cells were loosened up by shaking, and additionally washed once. 35 μL of buffer was added into each well, mixed well, and the mixture was measured by a flow cytometer. Of those, ET150-5scFv is a positive control antibody with the sequence found in the patent application CN107428829A, 3B5VHH has an amino acid sequence as set forth in SEQ ID NO: 15, 3E7VHH has an amino acid sequence as set forth in SEQ ID NO: 19, 4A2VHH has an amino acid sequence as set forth in SEQ ID NO: 24, and 4B3VHH has an amino acid sequence as set forth in SEQ ID NO: 30.

[7] = target: T2, human G protein-coupled receptor class …; experiment: flow cytometry on GPRC5D-CHO cells, anti-human IgG Fc secondary antibody
Procedure: CHO-GPRC5D target cells were formulated with PBS buffer to a concentration of 1×10⁶ cells/mL, and added into a 96-well sharp-bottom plate (corning 3894) with 30 μL in each well. The antibodies to be detected, G5VHH1-hIgG1Fc and G5VHH2-hIgG1Fc were formulated with PBS buffer to a concentration of 30 μg/mL, and subject to 3-fold dilution to form a gradient of 8 concentrations (with the minimum concentration of 0). The formulated antibodies with different concentrations were mixed well with the plated target cells at 30 μL/well, and incubated in a refrigerator at 4° C. for 1 hr. 150 μL of buffer was added into each well, and centrifuged at 300 g for 5 min. The supernatant was then discarded, and the cells were additionally washed once. Goat-anti-human IgG (Fc-specific, ab98593) fluorescent secondary antibody was formulated with buffer at a ratio of 1:200, added into each well in an amount of 30 μl and mixed with the cells uniformly, and incubated in the refrigerator at 4° C. for 30 min. 170 μL of buffer was added to each well, and centrifuged at 300 g for 5 min. The supernatant was then discarded and the cells were additionally washed once. 35 μL of buffer was added into each well, mixed well, and the mixture was detected by iQue Screener Flow Cytometer (available from IntelliCyt Company). […]

[8] = target: T1, N-terminal peptide of human GPRC5D …; experiment: BLI (Octet RED384), biotinylated peptide on SA sensor; fit R2 0.7914, model called not credible
From the text: (§1) The G5VHH1 and G5VHH2 antibody sequences were cloned into an eukaryotic vector containing p3.4-hIgG1Fc of a human IgG1 Fc fragment (hIgG1Fc) sequence, facilitating the recombinant expression of GPRC5D VHH-hIgG1Fc to give a recombinant protein which was then purified to determine the affinity of G5VHH1-hIgG1Fc and G5VHH2-hIgG1Fc to the affinity N-terminal peptide (Biotin) of GPRC5D. Briefly, the N-terminal peptide of human GPRC5D (>sp|Q9NZD1|1-27: […]) protein was labeled with biotin (EZ-Link Sulfo-NHS-LC-Biotin, Pierce, 21327). By the biolayer interferometry (BLI) technique, the binding kinetics between antigen and antibody was analyzed using the molecular interaction analyzer fortebiooctetRED384 (PALL) (wherein both antigen and antibody were diluted with a PBS buffer containing 0.1% BSA and 0.02% Tween 20). The biotin-conjugated antigen with a concentration of 20 nM was immobilized to an SA sensor, and bound for 3 min; then bound with double-diluted antibody solution (G5VHH1 and G5VHH2 antibodies) for 5 min; and finally dissociated for 5 min. The obtained results were analyzed by Octet Data Analysis 9.0 software (fortebio) to calculate the binding strength between the antigen and the antibody, thereby giving the KD value, Ka (1/Ms) value and Kd (1/s) value. […]

[9] = target: T1, N-terminal peptide of human GPRC5D …; experiment: BLI (Octet RED384), biotinylated peptide on SA sensor, antibody in solution
From the text: as §1

T2 sequence (Q9NZD1 whole entry): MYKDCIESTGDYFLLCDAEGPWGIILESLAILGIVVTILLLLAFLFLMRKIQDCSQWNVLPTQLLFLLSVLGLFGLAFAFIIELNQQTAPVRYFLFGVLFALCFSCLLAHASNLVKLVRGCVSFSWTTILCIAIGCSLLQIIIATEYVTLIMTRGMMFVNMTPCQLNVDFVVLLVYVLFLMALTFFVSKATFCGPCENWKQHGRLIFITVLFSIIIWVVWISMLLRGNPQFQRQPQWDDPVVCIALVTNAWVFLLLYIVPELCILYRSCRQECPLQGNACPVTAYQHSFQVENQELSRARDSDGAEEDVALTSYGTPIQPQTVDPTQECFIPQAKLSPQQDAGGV

EC50 [4] | EC50 [5] | EC50 [6] | Binder | further results
 |  |  | ET150-5 scFv (scFv, from another filing) scFv: QSVLTQPPSASGTPGQRVTISCSGSRSNVGGNYVFWYQQVPGATPKLLIYRSNQRPSGVPDRFAGSKSGSSASLAISGLRSEDEADYYCATWDDSLSGFVFGTGTKVTVLGSRGGGGSGGGGSGGGGSLEMAEVQLVESGGGLVKPGGSLRLSCAASGFTFSDYYMSWIRQAPGKGLEWVSYISSSGSTIYYADSVKGRFTISRDNAKNSLYLQMNSLRAEDTAVYYCARGYGKAYDQWGQGTLVTVSS | EC50 [1]: 0.249 µg/mL; EC50 [2]: 0.431 µg/mL; EC50 [3]: 0.911 µg/mL
0.103 µg/mL | 0.207 µg/mL | 0.0439 µg/mL | 3B5 VHH (VHH, From the synthetic nanobody library NanoOri_1.0 (Caplacizumab backbone)) VHH: EVQLVESGGGLVQPGGSLRLSCAASGFIFSRYGMGWFRQAPGKGRELVAAINWSDGTTYYPDSVEGRFTISRDNAKRMVYLQMNSLRAEDTAVYYCAADRRLRSQTGYDYWGQGTQVTVSS | 
 |  |  | G5VHH1-hIgG1Fc (Fc fusion, also called G5VHH1 antibody; not shown: human IgG1 Fc fragment (hIgG1Fc) of vector p3.4-hIgG1Fc) EVQLVESGGGLVQPGGSLRLSCAASGRIFSRDAMGWFRQAPGKGRELVAAINSSGGNTYYPDSVEGRFTISRDNAKRMVYLQMNSLRAEDTAVYYCAARGVRWTSTTAYGYNYWGQGTQVTVSS | EC50 (read off the curve) [7]: ~1 µg/mL; binding result [8]: no binding
0.426 µg/mL | 0.576 µg/mL | 0.286 µg/mL | 3E7 VHH (VHH, also called G5VHH1) VHH: EVQLVESGGGLVQPGGSLRLSCAASGRIFSRDAMGWFRQAPGKGRELVAAINSSGGNTYYPDSVEGRFTISRDNAKRMVYLQMNSLRAEDTAVYYCAARGVRWTSTTAYGYNYWGQGTQVTVSS | 
 |  |  | G5VHH2-hIgG1Fc (Fc fusion, also called G5VHH2 antibody; not shown: human IgG1 Fc fragment (hIgG1Fc) of vector p3.4-hIgG1Fc) EVQLVESGGGLVQPGGSLRLSCAASGLIFSRYVMGWFRQAPGKGRELVAFINSSGGSTNYPDSVEGRFTISRDNAKRMVYLQMNSLRAEDTAVYYCAASSRTSTTRGYNYWGQGTQVTVSS | Kd [9]: 76.9 nM; EC50 (read off the curve) [7]: ~0.4 µg/mL
0.18 µg/mL | 0.216 µg/mL | 0.658 µg/mL | 4B3 VHH (VHH, also called G5VHH2) VHH: EVQLVESGGGLVQPGGSLRLSCAASGLIFSRYVMGWFRQAPGKGRELVAFINSSGGSTNYPDSVEGRFTISRDNAKRMVYLQMNSLRAEDTAVYYCAASSRTSTTRGYNYWGQGTQVTVSS | 
0.0687 µg/mL | 0.164 µg/mL | 0.0195 µg/mL | 4A2 VHH (VHH) VHH: EVQLVESGGGLVQPGGSLRLSCAASGFIFSRYDMGWFRQAPGKGRELVAVITWGGGSTYYPDSVEGRFTISRDNAKRMVYLQMNSLRAEDTAVYYCAARSASAYRTGRLEYNYWGQGTQVTVSS | 
